Legend:
Settings in all cases: tags: Sigma Aldrich, from bovine pancreas; label: fluorescein on 5'-terminal dT; intramolecular antiparallel G4
[1] = target: T1, trypsin (Bos taurus, UniProt P00760 P00760:24-246); test: FP; 25 mM KCl, 200 mM NaCl, 25 mM Hepes pH 7.4, 25 C; benzamidine arm only
Method: (§1) The preformed quadruplexes were then incubated with increasing concentrations of trypsin at 25° C. (25 mM KCl, 200 mM NaCl, 25 mM Hepes, pH 7.4) for 30 min. Preliminary fluorescence anisotropy studies were conducted to ascertain that equilibrium was reached after 30 min and that there was no significant quenching of the fluorescein emission. The anisotropy associated with the fluorescein emission was followed at 525 nm (excitation at 495 nm). The resultant binding isotherms (FIG. 14) were fitted using non-linear regression to a 1:1 binding stoichiometry. […] This dissociation constant is attributed to non-specific interactions between bovine trypsin and ODN 4, since trypsin (pI=10.5) is positively charged at pH=7.4 and thus can potentially associate with the negatively charged DNA backbone. Support for such non-specific interactions comes from incubation of trypsin with ODN 4 where the concentration of salts were decreased to only 5 mM KCl, 25 mM Hepes, pH 7.4 (see, e.g., FIG. 23).
(§2) Immediately prior to each fluorescence polarization experiment, fresh stock solutions of trypsin were made in Hepes buffer (20 mM KCl, 200 mM NaCl, 25 mM Hepes, pH 7.4). Concentration of the trypsin in the stock solutions were determined using ultra-violet absorbance at 280 nm (ε=37669 M⁻¹cm⁻¹).

[2] = target: T1, trypsin; test: FP; low salt: 5 mM KCl, 25 mM Hepes pH 7.4; +/-0.3e-6
Method: The results of FIG. 23 show fluorescence anisotropy titrations of AC 1 and negative control ODN 4 (2 nM), first exposed to quadruplex forming conditions followed by incubation with increasing concentrations of trypsin. These experiments were conducted under low-salt conditions (5 mM KCl, 25 mM Hepes, pH 7.4. The raw data is depicted by circles for AC 1 and diamonds (♦) for ODN 4. The lines represent non-linear fits to equation 2 (R²=0.99 for AC 1 and 0.98 for ODN 4).
These findings are consistent with the fact that bovine trypsin is positively charged at pH=7.4 (pI of bovine trypsin is=10.5) and thus can potentially associate with the negatively charged ODN backbone, through non-specific interactions, under low-salt conditions.

[3] = target: T1, trypsin; test: FP; preformed quadruplex, 25 mM KCl (20 mM elsewhere), 200 mM NaCl, 25 mM Hepes pH 7.4, 25 C; binding through small-molecule arms
Method: as §1, §2

[4] = target: T1, trypsin; test: FP; 25 mM KCl, 200 mM NaCl, 25 mM Hepes pH 7.4, 25 C; iodophenylthiourea arm only
Method: as §1, §2

T1 sequence (P00760 24-246, one chain of several): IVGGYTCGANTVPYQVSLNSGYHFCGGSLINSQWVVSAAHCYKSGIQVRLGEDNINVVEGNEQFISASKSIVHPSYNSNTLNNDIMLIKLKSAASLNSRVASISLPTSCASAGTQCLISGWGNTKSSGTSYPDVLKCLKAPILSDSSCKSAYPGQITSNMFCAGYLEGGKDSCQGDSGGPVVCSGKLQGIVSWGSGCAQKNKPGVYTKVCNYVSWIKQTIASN

B1: ODN 2 (Formula 4) (structured_DNA)
DNA: TTGGTTGGTGTGGTTGGT
modifications: 5'-benzamidine arm via C10 spacer, no 3' arm
Which Kd [1] does the source give for B1 here?
Its Kd is 29 µM.

B2: AC 1 (ODN 1, Formula 3) (structured_DNA)
DNA: TTGGTTGGTGTGGTTGGT
modifications: 5'-benzamidine arm via C10 spacer, 3'-iodophenylthiourea arm via C6 spacer
With B2 as the binder, how does the Kd [2] read?
Its Kd is 2.8 µM.

And the Kd [3]?
Its Kd is 0.81 µM.

B3: ODN 3 (Formula 5) (structured_DNA)
DNA: TTGGTTGGTGTGGTTGGT
modifications: 3'-iodophenylthiourea arm via C6 spacer, no 5' arm
How did the Kd [4] turn out when B3 was run?
Its Kd is 90 µM.
